Test results published in article doi:10.1101/156513 (bioRxiv, 2017).

B1: HA-DbpA (natural protein)
chain: not shown
B2: GFP-tagged C-terminal ZO-1 fragment (GFP-ZO-1-1619-1748) (domain or fragment)
chain: SAVEEDEDEDGHTVVATARGIFNSNGGVLSSIETGVSIIIPQGAIPEGVEQEIYFKVCRDNSILPPLDKEKGETLLSPLVMCGPHGLKFLKPVELRLPHCDPKTWQNKCLPGDPNYLVGANCVSVLIDHF

Target: T1, GST-ZPSG-1 (UniProt Q07157 417-806)
T1 sequence: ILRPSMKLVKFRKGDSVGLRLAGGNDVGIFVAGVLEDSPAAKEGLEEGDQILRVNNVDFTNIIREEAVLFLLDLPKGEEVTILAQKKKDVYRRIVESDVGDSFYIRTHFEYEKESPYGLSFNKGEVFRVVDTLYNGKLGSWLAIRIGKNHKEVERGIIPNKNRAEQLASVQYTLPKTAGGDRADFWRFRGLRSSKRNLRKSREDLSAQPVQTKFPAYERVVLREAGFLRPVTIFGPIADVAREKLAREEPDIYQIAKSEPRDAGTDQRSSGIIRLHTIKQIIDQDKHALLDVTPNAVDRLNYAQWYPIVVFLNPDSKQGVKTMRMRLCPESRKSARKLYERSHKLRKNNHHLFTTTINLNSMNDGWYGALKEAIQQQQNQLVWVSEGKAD
Assay: supernatant depletion assay

Binder	Kd [nM]
B1	100
B2	66
